Measurements published in patent publication US10246495B2, “Variants of Gal2 transporter and their uses” (BUTALCO GMBH, priority 2014, dated 2019).
Numbering of substitutions follows the chain as printed. Names and notes keep the numbering of the source. “Also recorded” adds a separate entry of the source.

B1: V71I: Gal2 of CEN.PK with amino acid exchange V71I alone (protein, UniProt P13181 1-574, looked up, variant V71I)
Galactose transporter: MAVEENNMPVVSQQPQAGEDVISSLSKDSHLSAQSQKYSNDELKAGESGSEGSQSVPIEIPKKPMSEYVTISLLCLCVAFGGFMFGWDTGTISGFVVQTDFLRRFGMKHKDGTHYLSNVRTGLIVAIFNIGCAFGGIILSKGGDMYGRKKGLSIVVSVYIVGIIIQIASINKWYQYFIGRIISGLGVGGIAVLCPMLISEIAPKHLRGTLVSCYQLMITAGIFLGYCTNYGTKSYSNSVQWRVPLGLCFAWSLFMIGALTLVPESPRYLCEVNKVEDAKRSIAKSNKVSPEDPAVQAELDLIMAGIEAEKLAGNASWGELFSTKTKVFQRLLMGVFVQMFQQLTGNNYFFYYGTVIFKSVGLDDSFETSIVIGVVNFASTFFSLWTVENLGHRKCLLLGAATMMACMVIYASVGVTRLYPHGKSQPSSKGAGNCMIVFTCFYIFCYATTWAPVAWVITAESFPLRVKSKCMALASASNWVWGFLIAFFTPFITSAINFYYGYVFMGCLVAMFFYVFFFVPETKGLSLEEIQELWEEGVLPWKSEGWIPSSRRGNNYDLEDLQHDDKPWYKAMLE
B2: T354A: Gal2 of CEN.PK with amino acid exchange T354A alone (protein, listed as Saccharomyces cerevisiae)
chain: B1 Galactose transporter with S50P, I71V, R280L, T354A, H392R
B3: V71I and T354A: Gal2 of CEN.PK with amino acid exchanges T354A and V71I (protein, UniProt P13181 1-574, looked up, variant V71I T354A)
Galactose transporter: B1 Galactose transporter with T354A

What was measured:
Gal2 = Gal2 (Saccharomyces cerevisiae, UniProt P13181); settings: galactose transport by Gal2; cited from earlier work
EBY.VW4000 = assay: Serial dilution growth drop test of Gal2 variants in EBY.VW4000 on hexoses; format: cell-based, Saccharomyces cerevisiae; settings: FIG. 3, four days at 30°; for growth on glucose: Gal2 of CEN.PK constructs
Experimental: The transformants were cultivated in 5 ml SCM-ura with 20 g/l maltose at 300, washed with water and adjusted to an OD600 of 1. Thereof it followed a serial dilution. 5 μl were dropped onto the respective media and it was incubated for […] at 30°. As a control for the dilution SCM-ura with 20 g/l maltose was taken. The cells of the mutated transporters were dropped onto SCD-ura with 0.2% and 2% glucose, as well as SCG-ura with 0.2% and 2% D-galactose to test their functionality. Furthermore the wild type of CEN.PK2 and Ethanol Red, as well as Gal2_ep3.1 were used for comparison. The galactose transporter with the mutation T354A is from HDY.GUF10.
FIG. 3: Drop test of Gal2_T354A in combination with V71I and L280R in EBY.VW4000 after four days at 30°. Several dilutions were dropped from left to right (undiluted, 1:10, 1:100, 1:1000).
(§1) For easy comparison of growth of different S. cerevisiae strains under various growth conditions a serial dilution spot assay was performed. Cells were grown in liquid culture to exponential phase in appropriate medium, collected by centrifugation (2000×g, 2 min), washed twice with sterile water and then resuspended to an OD600 of 1.0 in selective medium without carbon source. From this cell suspension a ten-fold serial dilution was prepared in selective medium (four dilution steps). 6 μl of each cell suspension were spotted on plates of the media to be examined and allowed to dry. Plates were incubated at 30° C.
First a growth test was performed with the vectors in VW4000 on glucose and maltose media. The galactose transporter of the wild type CEN.PK2, as well as Gal2_ep3.1 were used as controls and as a comparison.
The following variants of Gal2 were constructed in expression vectors: T354A, T354A+V71I, T354A+L280R, L280R and […]. They were transformed into competent EBY.VW4000 cells. Then drop tests were performed on different carbon sources.

AFY10 = assay: Serial dilution growth drop test of Gal2 variants in AFY10 on xylose and xylose-glucose mixtures; format: cell-based, Saccharomyces cerevisiae; settings: FIG. 4; 2 g/l xylose, six days at 30°
Experimental: The transformants were cultivated in 5 ml SCE-ura-leu with 2% ethanol at 300, washed with water and adjusted to an OD600 of 1. Thereof it followed a serial dilution. 5 μl were dropped onto the respective media and it was incubated for […] at 30°. As a control for the dilution SCE-ura-leu with 2% ethanol was taken. The cells of the mutated transporters were dropped onto SCX-ura-leu with 0.2% and 2% D-xylose, as well as SC-ura-leu with 1% D-xylose with 4% D-glucose and SC-ura-leu with 0.2% D-xylose and 2% D-glucose to test their functionality. Furthermore the wild type of CEN.PK2 and Ethanol Red, as well as Gal2_ep3.1 were used for comparison. The galactose transporter with the mutation T354A is from HDY.GUF10.
FIG. 4: Drop test of Gal2_T354A in combination with V71I and L280R in AFY10 after six days at 30°. Several dilutions were dropped from left to right (undiluted, 1:10, 1:100, 1:1000).
as §1
Furthermore this was also done with AFY10 in order to investigate the xylose specificity and the glucose affinity of the transformants.
The various constructs were transformed into AFY10 cells together with vector YEp181_pHXT7-optXI_Clos, and serial dilution growth drop tests were performed.

Sequence of Gal2 (P13181 whole entry): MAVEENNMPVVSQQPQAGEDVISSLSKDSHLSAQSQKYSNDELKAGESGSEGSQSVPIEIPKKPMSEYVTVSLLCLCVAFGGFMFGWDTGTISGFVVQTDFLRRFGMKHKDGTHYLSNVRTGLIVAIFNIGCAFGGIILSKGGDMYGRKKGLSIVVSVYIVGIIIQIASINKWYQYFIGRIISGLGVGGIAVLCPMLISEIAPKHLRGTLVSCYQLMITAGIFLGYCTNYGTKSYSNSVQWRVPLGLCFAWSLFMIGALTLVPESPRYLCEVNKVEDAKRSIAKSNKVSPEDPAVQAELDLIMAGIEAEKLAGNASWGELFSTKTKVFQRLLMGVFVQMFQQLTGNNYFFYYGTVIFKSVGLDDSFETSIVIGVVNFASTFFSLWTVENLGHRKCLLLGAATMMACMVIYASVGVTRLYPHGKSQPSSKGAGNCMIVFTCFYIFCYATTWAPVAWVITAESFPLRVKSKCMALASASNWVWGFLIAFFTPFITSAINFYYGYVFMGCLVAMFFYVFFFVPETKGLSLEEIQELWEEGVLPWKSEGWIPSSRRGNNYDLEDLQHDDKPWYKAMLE

Molecule	Km (Gal2)	effect on uptake of glucose or galactose (EBY.VW4000)	growth on low xylose concentrations (AFY10)	growth on glucose (EBY.VW4000)
O=C[C@H](O)[C@@H](O)[C@@H](O)[C@H](O)CO [galactose]	1000 to 5000 µM			
B1		no effect	very slow growth; also recorded: poor growth	
B2			poor growth	strongly impairs growth
B3			growth like the Gal2 wild type	does not mediate growth
